Assay results: the RNAGym collection of RNA variant scans (doi:10.1093/molbev/msab373)

B1: Azoarcus group I ribozyme (parent)
chain: GUGCCUUGCGCCGGGAAACCACGCAAGGGAUGGUGUCAAAUUCGGCGAAACCUAAGCGCCCGCCCGGGCGUAUGGCAACGCCGAGCCAAGCUUCGGCGCCUGCGCCGAUGAAGGUGUAGAGACUAGACGGCACCCACCUAAGGCAAACGCUAUGGUGAAGGCAUAGUCCAGGGAGUGGCGAAAGUCACACAAACCGG

Variants of: B1
Experiment: reverse-splicing fitness (ratio to wild type); higher = more active; in vitro selection; Mg2+ level not given
Outline: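 An in vitro group I ribozyme library with randomized positions was T7-transcribed and gel-purified. In triplicate, 10 pmol RNA in EPPS pH 7.5 was reacted with 50 pmoles of a 30-nt RNA substrate for 1 h at 37 °C across several added MgCl2 levels (1–48 mM), then stopped with EDTA. Products were reverse transcribed from a substrate-complementary primer, PCR-amplified and sequenced (HiSeq 4000). Fitness is a variant's read proportion after selection over that before, normalised to wild type.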

Point of comparison: GUGCCUUGCGCCGGGAAACCACGCAAGGGAUGGUGUCAAAUUCGGCGAAACCUAAGCGCCCGCCCGGGCGUAUGGCAACGCCGAGCCAAGCUUCGGCGCCUGCGCCGAUGAAGGUGUAGAGACUAGACGGCACCCACCUAAGGCAAACGUUAUGGUGAAGGCAUAGUCUAGGGAGCGGCGAAAGUCACACAAACCGG [C150U C169U U176C], reverse-splicing fitness 0.128. Against it:
- GUGCCUUGCGCCGGGAAACCACGCAAGGGAUGGUGUCAAAUUCGGCGAAACCUAAGCGCCCGCCCGGGCGUAUGGCAACGCCGAGCCAAGCUUCGGCGCCUGCGCCGAUGAAGGUGUAGAGACUAGACGGCACCCACCUAAGGCAAACGUUAUGGUGAAGGCAUAGUCUAGGGAGGGGCGAAAGUCACACAAACCGG [C150U C169U U176G] — lower, 0.0109
- GUGCCUUGCGCCGGGAAACCACGCAAGGGAUGGUGUCAAAUUCGGCGAAACCUAAGCGCCCGCCCGGGCGUAUGGCAACGCCGAGCCAAGCUUCGGCGCCUGCGCCGAUGAAGGUGUAGAGACUAGACGGCACCCACCUAAGGCAAACGUUAUGGUGAAGGCAUAGUCCAGGGAGAGGCGAAAGUCACACAAACCGG [C150U U176A] — higher, 0.814
- GUGCCUUGCGCCGGGAAACCACGCAAGGGAUGGUGUCAAAUUCGGCGAAACCUAAGCGCCCGCCCGGGCGUAUGGCAACGCCGAGCCAAGCUUCGGCGCCUGCGCCGAUGAAGGUGUAGAGACUAGACGGCACCCACCUAAGGCAAACGUUAUGGUGAAGGCAUAGUCCAGGGAGCGGCGAAAGUCACACAAACCGG [C150U U176C] — higher, 0.869
- GUGCCUUGCGCCGGGAAACCACGCAAGGGAUGGUGUCAAAUUCGGCGAAACCUAAGCGCCCGCCCGGGCGUAUGGCAACGCCGAGCCAAGCUUCGGCGCCUGCGCCGAUGAAGGUGUAGAGACUAGACGGCACCCACCUAAGGCAAACGUUAUGGUGAAGGCAUAGUCCAGGGAGGGGCGAAAGUCACACAAACCGG [C150U U176G] — higher, 0.306
- GUGCCUUGCGCCGGGAAACCACGCAAGGGAUGGUGUCAAAUUCGGCGAAACCUAAGCGCCCGCCCGGGCGUAUGGCAACGCCGAGCCAAGCUUCGGCGCCUGCGCCGAUGAAGGUGUAGAGACUAGACGGCACCCACCUAAGGCAAACGCUAUGGUGAAGGCAUAGUCAAGGGAGUGGCGAAAGUCACACAAACCGG [C169A] — higher, 0.18
- GUGCCUUGCGCCGGGAAACCACGCAAGGGAUGGUGUCAAAUUCGGCGAAACCUAAGCGCCCGCCCGGGCGUAUGGCAACGCCGAGCCAAGCUUCGGCGCCUGCGCCGAUGAAGGUGUAGAGACUAGACGGCACCCACCUAAGGCAAACGCUAUGGUGAAGGCAUAGUCAAGGGAGAGGCGAAAGUCACACAAACCGG [C169A U176A] — lower, 0.0336
- GUGCCUUGCGCCGGGAAACCACGCAAGGGAUGGUGUCAAAUUCGGCGAAACCUAAGCGCCCGCCCGGGCGUAUGGCAACGCCGAGCCAAGCUUCGGCGCCUGCGCCGAUGAAGGUGUAGAGACUAGACGGCACCCACCUAAGGCAAACGCUAUGGUGAAGGCAUAGUCAAGGGAGCGGCGAAAGUCACACAAACCGG [C169A U176C] — lower, 0.0638
- GUGCCUUGCGCCGGGAAACCACGCAAGGGAUGGUGUCAAAUUCGGCGAAACCUAAGCGCCCGCCCGGGCGUAUGGCAACGCCGAGCCAAGCUUCGGCGCCUGCGCCGAUGAAGGUGUAGAGACUAGACGGCACCCACCUAAGGCAAACGCUAUGGUGAAGGCAUAGUCAAGGGAGGGGCGAAAGUCACACAAACCGG [C169A U176G] — lower, 0.0054
- GUGCCUUGCGCCGGGAAACCACGCAAGGGAUGGUGUCAAAUUCGGCGAAACCUAAGCGCCCGCCCGGGCGUAUGGCAACGCCGAGCCAAGCUUCGGCGCCUGCGCCGAUGAAGGUGUAGAGACUAGACGGCACCCACCUAAGGCAAACGCUAUGGUGAAGGCAUAGUCGAGGGAGUGGCGAAAGUCACACAAACCGG [C169G] — higher, 0.323
- GUGCCUUGCGCCGGGAAACCACGCAAGGGAUGGUGUCAAAUUCGGCGAAACCUAAGCGCCCGCCCGGGCGUAUGGCAACGCCGAGCCAAGCUUCGGCGCCUGCGCCGAUGAAGGUGUAGAGACUAGACGGCACCCACCUAAGGCAAACGCUAUGGUGAAGGCAUAGUCGAGGGAGAGGCGAAAGUCACACAAACCGG [C169G U176A] — lower, 0.0721
- GUGCCUUGCGCCGGGAAACCACGCAAGGGAUGGUGUCAAAUUCGGCGAAACCUAAGCGCCCGCCCGGGCGUAUGGCAACGCCGAGCCAAGCUUCGGCGCCUGCGCCGAUGAAGGUGUAGAGACUAGACGGCACCCACCUAAGGCAAACGCUAUGGUGAAGGCAUAGUCGAGGGAGCGGCGAAAGUCACACAAACCGG [C169G U176C] — higher, 0.137
- GUGCCUUGCGCCGGGAAACCACGCAAGGGAUGGUGUCAAAUUCGGCGAAACCUAAGCGCCCGCCCGGGCGUAUGGCAACGCCGAGCCAAGCUUCGGCGCCUGCGCCGAUGAAGGUGUAGAGACUAGACGGCACCCACCUAAGGCAAACGCUAUGGUGAAGGCAUAGUCGAGGGAGGGGCGAAAGUCACACAAACCGG [C169G U176G] — lower, 0.00806
- GUGCCUUGCGCCGGGAAACCACGCAAGGGAUGGUGUCAAAUUCGGCGAAACCUAAGCGCCCGCCCGGGCGUAUGGCAACGCCGAGCCAAGCUUCGGCGCCUGCGCCGAUGAAGGUGUAGAGACUAGACGGCACCCACCUAAGGCAAACGCUAUGGUGAAGGCAUAGUCUAGGGAGUGGCGAAAGUCACACAAACCGG [C169U] — higher, 0.407
- GUGCCUUGCGCCGGGAAACCACGCAAGGGAUGGUGUCAAAUUCGGCGAAACCUAAGCGCCCGCCCGGGCGUAUGGCAACGCCGAGCCAAGCUUCGGCGCCUGCGCCGAUGAAGGUGUAGAGACUAGACGGCACCCACCUAAGGCAAACGCUAUGGUGAAGGCAUAGUCUAGGGAGAGGCGAAAGUCACACAAACCGG [C169U U176A] — lower, 0.114
